From the supplement of paper PMC7877785
± gives the uncertainty stated by the source.

Experiment: self-splicing fitness, log relative to wild type (ln ratio); higher = more splicing; Tetrahymena group I intron in knt gene, E. coli kanamycin selection, DiMSum; sequences stand for … in CUCUCU…GGAGGGAAAAGUUAUCAGGCAUGCACCUGGUAGCUAGUCUUUAAACCAAUAGAUUGCAUCGGUUUAAAAGGCAAGACCGUCAAAUUGCGGGAAAGGGGUCAACAGCCGUUCAGUACCAAGUCUCAGGGGAAACUUUGAGAUGGCCUUGCAAAGGGUAUGGUAAUAAGCUGACGGACAUGGUCCUAACCACGCAGCCAAGUCCUAAGUCAACAGAUCUUCUGUUGAUAUGGAUGCAGUUCACAGACUAAAUGUCGGUCGGGGAAGAUGUAUUCUUCUCAUAAGAUAUAGUCGGACCUCUCCUUAAUGGGAGCUAGCGGAUGAAGUGAUGCAACACUGGAGCCGCUGGGAACUAAUUUGUAUGCGAAAGUAUAUUGAUUAGUUUUGGAGUACUCGUGGUCG
Procedure, shortened: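 DiMSum derived fitness as the error-weighted combination of fold changes across replicates, kanamycin versus no kanamycin, normalised to wild type. E. coli BL21(DE3) held the library, which randomised all eight P1ex-region intron nucleotides within the knt kanamycin-resistance gene on pET-22b(+). Six replicate transformations grew overnight at 37°C or 30°C on LB agar with or without 25 μg/mL kanamycin, also containing 100 μg/mL carbenicillin, 50 μM IPTG and 0.2% rhamnose, and pooled colonies were amplicon-sequenced on an Illumina HiSeq 2500.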

| Sequence | self-splicing fitness (ln) (30 °C) | self-splicing fitness (ln) (37 °C) |
| --- | --- | --- |
| ACCUAGCAAUAUUACGUCGA | -2.29 ± 0.093 | -0.834 ± 0.091 |
| CCAGAGCAAUAUUACGAACG | -0.512 ± 0.081 | 0.191 ± 0.1 |
| AGAUAGCAAUAUUACGAAAC | -3.23 ± 0.37 |  |
| AAGCAGCAAUAUUACGUCCC | -1.01 ± 0.15 | -0.803 ± 0.2 |
| CCAGAGCAAUAUUACGGCUU | -3.75 ± 0.28 | -1.8 ± 0.2 |
| UGCGAGCAAUAUUACGUGGG | -4.32 ± 0.43 | -2.69 ± 0.23 |
| AAGUAGCAAUAUUACGUAGG | -4.35 ± 0.28 | -1.75 ± 0.18 |
| ACACAGCAAUAUUACGGAUG | -1.54 ± 0.058 | -0.668 ± 0.084 |
| AAGCAGCAAUAUUACGGCGU | -0.0119 ± 0.067 | 0.201 ± 0.079 |
| CUGUAGCAAUAUUACGUGAG | -1.31 ± 0.072 | -0.935 ± 0.096 |
| UCAUAGCAAUAUUACGUUUU | -2.81 ± 0.14 | -1.29 ± 0.14 |
| AGUCAGCAAUAUUACGCUCU | -1.01 ± 0.2 | -0.342 ± 0.21 |
| GGGAAGCAAUAUUACGACAA | -2 ± 0.2 | -1.34 ± 0.19 |
| CCAGAGCAAUAUUACGUUGG | -3.93 ± 0.23 | -2.57 ± 0.23 |
| ACUGAGCAAUAUUACGAUCG | -1.65 ± 0.15 | -1.99 ± 0.21 |
| GCUGAGCAAUAUUACGAUGA | -1.11 ± 0.13 | -1.07 ± 0.15 |
| AAAUAGCAAUAUUACGGUCC | -1.33 ± 0.12 | -0.378 ± 0.19 |
| UAGUAGCAAUAUUACGCAGC | -2.96 ± 0.47 |  |
| GUCAAGCAAUAUUACGUUAU | -2.02 ± 0.088 | -1.15 ± 0.09 |
| AGAGAGCAAUAUUACGACCA |  | -0.796 ± 0.48 |

| Sequence | self-splicing fitness (ln) (30 °C) | self-splicing fitness (ln) (37 °C) |
| --- | --- | --- |
| GAGAAGCAAUAUUACGUAUG | -2.37 ± 0.14 | -1.29 ± 0.14 |
| AUACAGCAAUAUUACGUUAG | -3.13 ± 0.15 | -2.12 ± 0.17 |
| GAUUAGCAAUAUUACGCGCC | -1.37 ± 0.38 | -1.2 ± 0.34 |
| GUAUAGCAAUAUUACGGUCU | -1.47 ± 0.11 | -0.548 ± 0.16 |
| AUGCAGCAAUAUUACGACCC | -0.995 ± 0.2 | -0.303 ± 0.31 |
| CUCGAGCAAUAUUACGUAGC |  | -2.19 ± 0.27 |
| GCUGAGCAAUAUUACGUCCG | -2.38 ± 0.23 | -2.3 ± 0.31 |
| CAUAAGCAAUAUUACGUUCC | -3.94 ± 0.32 |  |
| ACUAAGCAAUAUUACGACUG | -0.95 ± 0.065 | -0.652 ± 0.089 |
| GCGCAGCAAUAUUACGCGAC | -1.77 ± 0.12 | -1.79 ± 0.18 |
| UUAUAGCAAUAUUACGUGUC | -4.44 ± 0.36 | -2.71 ± 0.26 |
| AACAAGCAAUAUUACGCCCC | -0.645 ± 0.24 | 0.323 ± 0.26 |
| AGCUAGCAAUAUUACGUAGU | -3.32 ± 0.12 | -2.85 ± 0.14 |
| AUAGAGCAAUAUUACGUGUC | -2.81 ± 0.33 | -2.17 ± 0.36 |
| CGUUAGCAAUAUUACGAUAG | -0.0326 ± 0.15 | -0.211 ± 0.14 |
| ACCAAGCAAUAUUACGAUAU | -3.22 ± 0.11 | -2.17 ± 0.095 |
| AGGCAGCAAUAUUACGGUCA | -0.0713 ± 0.069 | -0.148 ± 0.079 |
| CGAAAGCAAUAUUACGUUCC | -2.1 ± 0.21 | -0.586 ± 0.22 |
| UAACAGCAAUAUUACGGCCG | -0.568 ± 0.078 | 0.226 ± 0.12 |
